Assay results published in PMC10635376, “New insights into the mechanism and DNA-sequence specificity of INO80 chromatin remodeling” (Research Square, 2023).

Target: Recombinant Xenopus laevis histone octamer reconstituted into 70N5 mononucleosomes (Xenopus laevis)
Assay: native gel or EMSA; 70N5 601 nucleosomes with photo-reactive DNA bound with saturating INO80 at 30 C for 30 min; extent of binding on 4% native polyacrylamide gels

Native wild-type Saccharomyces cerevisiae INO80 complex (from UniProt P53115 1-1489; P53946 1-755; P32617 1-166; P40154 1-320; Q12386 1-881; P80428 1-489; P60010 1-375)
percent of nucleosomes bound: > 90%
